{"source": "paper PMC5577506", "about": "“Intrinsic disorder in the partitioning protein KorB persists after co-operative complex formation with operator DNA and KorA” (Biochemical Journal, 2017)", "key": {"[1]": {"target": "T1, KorB (ParB family protein from the IncP1 plasmid RK2) (plasmid RK2 (IncP1), UniProt P07674 1-358)", "T1 construct": "KorB of plasmid RK2 (IncP1), 358 amino acid residues per subunit, homodimer; also called WT KorB; ^1H-KorB; source: E. coli BL21(λDE3), His-tagged fusion, purified as described previously [21]; also partially deuterated (~70% D2O M9 medium) and ^15N-labelled", "T1 sequence (looked up)": "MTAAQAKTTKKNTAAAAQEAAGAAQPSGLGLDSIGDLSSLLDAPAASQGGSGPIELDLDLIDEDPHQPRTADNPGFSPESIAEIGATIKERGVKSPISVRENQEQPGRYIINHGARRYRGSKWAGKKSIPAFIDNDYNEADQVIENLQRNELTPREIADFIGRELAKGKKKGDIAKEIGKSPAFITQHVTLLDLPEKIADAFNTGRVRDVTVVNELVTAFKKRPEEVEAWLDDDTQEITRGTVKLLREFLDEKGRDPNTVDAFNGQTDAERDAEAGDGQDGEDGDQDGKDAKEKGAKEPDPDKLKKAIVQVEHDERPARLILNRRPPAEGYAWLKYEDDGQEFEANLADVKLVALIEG", "experiment": "NMR titration; ^15N-^1H TROSY at 800 MHz of ^15N/^2D KorB (~0.1 mM dimer) titrated with unlabelled KorA (1 and 2 equivalents); 10 mM sodium phosphate pH 7.0, 100 mM NaCl, 0.1 mM EDTA, 30°C", "details": "both partners purified"}, "[2]": {"target": "(NΔ150)KorB (Escherichia coli (expression host); …, UniProt P07674 151-358, del1-150)", "experiment": "SAXS, SANS; complex mass consistent with protein + DNA (67.5 kDa calculated); Buffer, salt, pH and temperature not given in the material; NMR at 800 MHz; SANS in 0, 65 or 100% D2O", "details": "protein: recombinant; tags: His-tag; chain copies: 2; blunt (only one strand printed; complement implied)"}, "[3]": {"target": "T2, KorB (Escherichia coli (expression host); …, UniProt P07674 1-358)", "experiment": "NMR (15N-1H TROSY titration), SAXS, SANS; KorB dimer:OB 1:1; DBD and N-terminal peaks lost, CTD unaffected; Buffer, salt, pH and temperature not given in the material; NMR at 800 MHz; SANS in 0, 65 or 100% D2O", "details": "protein: recombinant; tags: His-tag; chain copies: 2; blunt (only one strand printed; complement implied)"}, "[4]": {"target": "T2, KorB", "experiment": "CD; 1 equivalent KorB; change at 280 nm; Buffer, salt, pH and temperature not given in the material; NMR at 800 MHz; SANS in 0, 65 or 100% D2O", "details": "protein: recombinant; tags: His-tag; chain copies: 2; blunt (only one strand printed; complement implied)"}, "[5]": {"target": "KorB;KorA (Escherichia coli (expression host); …, UniProt P07674;P03052 1-358;1-101, |)", "experiment": "NMR (15N-1H TROSY), CD, SANS; ternary KorA/KorB/OAOB complex; Buffer, salt, pH and temperature not given in the material; NMR at 800 MHz; SANS in 0, 65 or 100% D2O", "details": "protein: recombinant;recombinant; tags: His-tag;none; chain copies: 2;2; blunt (only one strand printed; complement implied)"}, "[6]": {"target": "KorA (Escherichia coli (expression host); …, UniProt P03052 1-101)", "experiment": "CD; 1 equivalent KorA; change at 280 nm; Buffer, salt, pH and temperature not given in the material; NMR at 800 MHz; SANS in 0, 65 or 100% D2O", "details": "protein: recombinant; tags: none; chain copies: 2; blunt (only one strand printed; complement implied)"}}}
{"binder": "KorA (repressor from the plasmid RK2) (natural protein, plasmid RK2 (IncP1), UniProt P03052 1-101, looked up, KorA of plasmid RK2; used as a dimer; the domain scheme runs from residue 1 to 101; also called ^1H-KorA; ^2D-KorA; source: E. coli BL21(λDE3), without a tag, purified as before [14]) MKKRLTESQFQEAIQGLEVGQQTIEIARGVLVDGKPQATFATSLGLTRGAVSQAVHRVWAAFEDKNLPEGYARVTAVLPEHQAYIVRKWEADAKKKQETKR", "values": [{"measurement": "stoichiometry N", "setting": "[1]", "result": "2 KorA dimers per KorB dimer"}]}
{"binder": "OB (dsDNA) DNA 1: CGAGAATTTTAGCGGCTAAAAAGGGC DNA 2: GCCCTTTTTAGCCGCTAAAATTCTCG", "values": [{"measurement": "binding result", "setting": "[2]", "result": "binds"}, {"measurement": "binding result", "setting": "[3]", "result": "binds"}]}
{"binder": "OAOB (dsDNA) DNA 1: GGACGAGTTTTAGCGGCTAAAGGTGTTGACGTGCGAGAAATGTTTAGCTAAACTTCG DNA 2: CGAAGTTTAGCTAAACATTTCTCGCACGTCAACACCTTTAGCCGCTAAAACTCGTCC", "values": [{"measurement": "binding result", "setting": "[4]", "result": "binds"}, {"measurement": "binding result", "setting": "[5]", "result": "binds"}, {"measurement": "binding result", "setting": "[6]", "result": "binds"}]}
